Assay results from paper PMC3088644.

Target: mitochondrial ATP synthase (mouse (endogenous in MEFs)) (UniProt Q03265)
Experiment: native gel or EMSA

stoichiometry N: 2
Substance: mitochondrial ATP synthase (from UniProt Q03265 44-553) (complex)
